B1: Cytochrome c-551, P00099 (parent)
chain: MKPYALLSLLATGTLLAQGAWAEDPEVLFKNKGCVACHAIDTKMVGPAYKDVAAKFAGQAGAEAELAQRIKNGSQGVWGPIPMPPNAVSDDEAQTLAKWVLSQK

This data set covers variants of B1. Conditions: Pseudomonas aeruginosa (strain ATCC 15692 / DSM 22644 / CIP 104116 / JCM 14847 / LMG 12228 / 1C / PRS 101 / PAO1), pH 3.6, Thermal, DSC, sodium acetate 50 mM, reversible: yes, structure 451C, whole UniProt chain shown; for ddG of mutation (higher = less stable) / heat capacity change of unfolding / unfolding enthalpy (calorimetric): 62.6 °C.

In the case of F29A V35M F56Y E65Y V100I, the “ddG of mutation (higher = less stable)” value is -4.55 kcal/mol, the “heat capacity change of unfolding” value worked out at 1.12 kcal/mol/K, the “unfolding enthalpy (calorimetric)” value is 71.1 kcal/mol and the Tm was determined as 82.4 °C. Moreover, the “change of melting temperature, mutant - wild type (higher = more stable)” value (“change of melting temperature, mutant” for short) amounted to 19.8 °C.
Take F29A V35M F56Y E65Y: the “ddG of mutation (higher = less stable)” value is -3.02 kcal/mol, the “heat capacity change of unfolding” value stood at 1 kcal/mol/K, the “unfolding enthalpy (calorimetric)” value stood at 64.8 kcal/mol and the Tm was found to be 77.4 °C. The “change of melting temperature, mutant” value amounted to 14.8 °C.
In the same order, the values of F56Y E65Y are -1.26 kcal/mol, 0.74 kcal/mol/K, 65.5 kcal/mol, 69 °C and 6.4 °C.
Turning to F29A V35M V100I, the “ddG of mutation (higher = less stable)” value was -2.61 kcal/mol, the “heat capacity change of unfolding” value was determined as 0.92 kcal/mol/K and the “unfolding enthalpy (calorimetric)” value came out at 64.4 kcal/mol.
Take F56Y E65Y V100I: the “ddG of mutation (higher = less stable)” value is -2.21 kcal/mol, the “heat capacity change of unfolding” value turned out to be 0.95 kcal/mol/K, the “unfolding enthalpy (calorimetric)” value came out at 67 kcal/mol and the Tm came out at 73.3 °C. For the same variant, the “change of melting temperature, mutant” value came to 10.7 °C.
In the case of V100I, the “ddG of mutation (higher = less stable)” value was -1.11 kcal/mol, the “heat capacity change of unfolding” value amounted to 0.73 kcal/mol/K and the “unfolding enthalpy (calorimetric)” value was found to be 65.6 kcal/mol.
With F29A V35M, the “ddG of mutation (higher = less stable)” value is -1.88 kcal/mol, the “heat capacity change of unfolding” value was found to be 0.64 kcal/mol/K, the “unfolding enthalpy (calorimetric)” value turned out to be 64.2 kcal/mol and the Tm was 72.4 °C. For the same variant, the “change of melting temperature, mutant” value was found to be 9.8 °C.
